Results from patent publication US20200297818A1 (ZEALAND PHARMA A S, published 2020).

How the values were obtained:
[1] = target: human glucagon-like peptide 1 receptor (GLP-1 R) (human, UniProt P43220 24-463); experiment: cell-based or functional assay
[2] = target: T1, human GLP-2 receptor (hGLP2-R) (human, UniProt O95838 1-553); experiment: cell-based or functional assay
T1 sequence (looked up): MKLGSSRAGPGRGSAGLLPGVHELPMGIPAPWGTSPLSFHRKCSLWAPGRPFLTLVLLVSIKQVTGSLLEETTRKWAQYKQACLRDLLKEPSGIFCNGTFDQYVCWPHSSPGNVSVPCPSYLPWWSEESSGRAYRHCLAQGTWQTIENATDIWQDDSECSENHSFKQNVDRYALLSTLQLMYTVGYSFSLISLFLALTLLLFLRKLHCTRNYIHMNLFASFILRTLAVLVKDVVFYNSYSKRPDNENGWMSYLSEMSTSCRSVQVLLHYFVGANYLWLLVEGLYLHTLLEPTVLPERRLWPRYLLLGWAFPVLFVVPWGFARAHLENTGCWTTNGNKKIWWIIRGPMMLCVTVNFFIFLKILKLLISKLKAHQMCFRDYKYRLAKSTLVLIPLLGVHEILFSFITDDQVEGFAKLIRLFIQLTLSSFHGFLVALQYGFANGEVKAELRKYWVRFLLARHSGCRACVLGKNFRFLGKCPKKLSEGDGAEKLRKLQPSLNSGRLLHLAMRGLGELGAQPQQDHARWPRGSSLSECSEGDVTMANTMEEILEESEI

B1: Compound 17 (peptide)
peptide: HXEGTFSSELATILDXQAARDFIAWLIQHKITD
HELM: PEPTIDE1{H.[Aib].E.G.T.F.S.S.E.L.A.T.I.L.D.K.Q.A.A.R.D.F.I.A.W.L.I.Q.H.K.I.T.D}|PEPTIDE2{[O=C(O)CCCCCCCCCCCCCCCCC(=O)[*:2]].[gGlu]}$PEPTIDE1,PEPTIDE2,16:R3-2:R2$$$V2.0
SMILES: CC[C@H](C)[C@H](NC(=O)[C@H](Cc1ccccc1)NC(=O)[C@H](CC(=O)O)NC(=O)[C@H](CCCNC(=N)N)NC(=O)[C@H](C)NC(=O)[C@H](C)NC(=O)[C@H](CCC(N)=O)NC(=O)[C@H](CCCCNC(=O)CC[C@H](NC(=O)CCCCCCCCCCCCCCCCC(=O)O)C(=O)O)NC(=O)[C@H](CC(=O)O)NC(=O)[C@H](CC(C)C)NC(=O)[C@@H](NC(=O)[C@@H](NC(=O)[C@H](C)NC(=O)[C@H](CC(C)C)NC(=O)[C@H](CCC(=O)O)NC(=O)[C@H](CO)NC(=O)[C@H](CO)NC(=O)[C@H](Cc1ccccc1)NC(=O)[C@@H](NC(=O)CNC(=O)[C@H](CCC(=O)O)NC(=O)C(C)(C)NC(=O)[C@@H](N)Cc1c[nH]cn1)[C@@H](C)O)[C@@H](C)O)[C@@H](C)CC)C(=O)N[C@@H](C)C(=O)N[C@@H](Cc1c[nH]c2ccccc12)C(=O)N[C@@H](CC(C)C)C(=O)N[C@H](C(=O)N[C@@H](CCC(N)=O)C(=O)N[C@@H](Cc1c[nH]cn1)C(=O)N[C@@H](CCCCN)C(=O)N[C@H](C(=O)N[C@H](C(=O)N[C@@H](CC(=O)O)C(=O)O)[C@@H](C)O)[C@@H](C)CC)[C@@H](C)CC
[1]
  EC50 GLP-1 (nM); cAMP response: 0.9 nM
[2]
  EC50 GLP-2 (nM); cAMP response: 0.33 nM

B2: Compound 20 (peptide)
peptide: HXEGTFSSELATILDXQAARDFIAWLIEHKITD
HELM: PEPTIDE1{H.[Aib].E.G.T.F.S.S.E.L.A.T.I.L.D.K.Q.A.A.R.D.F.I.A.W.L.I.E.H.K.I.T.D}|PEPTIDE2{[O=C(O)CCCCCCCCCCCCCCCCC(=O)[*:2]].[gGlu]}$PEPTIDE1,PEPTIDE2,16:R3-2:R2$$$V2.0
SMILES: CC[C@H](C)[C@H](NC(=O)[C@H](Cc1ccccc1)NC(=O)[C@H](CC(=O)O)NC(=O)[C@H](CCCNC(=N)N)NC(=O)[C@H](C)NC(=O)[C@H](C)NC(=O)[C@H](CCC(N)=O)NC(=O)[C@H](CCCCNC(=O)CC[C@H](NC(=O)CCCCCCCCCCCCCCCCC(=O)O)C(=O)O)NC(=O)[C@H](CC(=O)O)NC(=O)[C@H](CC(C)C)NC(=O)[C@@H](NC(=O)[C@@H](NC(=O)[C@H](C)NC(=O)[C@H](CC(C)C)NC(=O)[C@H](CCC(=O)O)NC(=O)[C@H](CO)NC(=O)[C@H](CO)NC(=O)[C@H](Cc1ccccc1)NC(=O)[C@@H](NC(=O)CNC(=O)[C@H](CCC(=O)O)NC(=O)C(C)(C)NC(=O)[C@@H](N)Cc1c[nH]cn1)[C@@H](C)O)[C@@H](C)O)[C@@H](C)CC)C(=O)N[C@@H](C)C(=O)N[C@@H](Cc1c[nH]c2ccccc12)C(=O)N[C@@H](CC(C)C)C(=O)N[C@H](C(=O)N[C@@H](CCC(=O)O)C(=O)N[C@@H](Cc1c[nH]cn1)C(=O)N[C@@H](CCCCN)C(=O)N[C@H](C(=O)N[C@H](C(=O)N[C@@H](CC(=O)O)C(=O)O)[C@@H](C)O)[C@@H](C)CC)[C@@H](C)CC
[1]
  EC50 GLP-1 (nM); cAMP response: 0.55 nM
[2]
  EC50 GLP-2 (nM); cAMP response: 0.37 nM

B3: Compound 18 (peptide)
peptide: HXEGSFTSELATILDXQAARDFIAWLIQHKITD
HELM: PEPTIDE1{H.[Aib].E.G.S.F.T.S.E.L.A.T.I.L.D.K.Q.A.A.R.D.F.I.A.W.L.I.Q.H.K.I.T.D}|PEPTIDE2{[O=C(O)CCCCCCCCCCCCCCCCC(=O)[*:2]].[gGlu]}$PEPTIDE1,PEPTIDE2,16:R3-2:R2$$$V2.0
SMILES: CC[C@H](C)[C@H](NC(=O)[C@H](Cc1ccccc1)NC(=O)[C@H](CC(=O)O)NC(=O)[C@H](CCCNC(=N)N)NC(=O)[C@H](C)NC(=O)[C@H](C)NC(=O)[C@H](CCC(N)=O)NC(=O)[C@H](CCCCNC(=O)CC[C@H](NC(=O)CCCCCCCCCCCCCCCCC(=O)O)C(=O)O)NC(=O)[C@H](CC(=O)O)NC(=O)[C@H](CC(C)C)NC(=O)[C@@H](NC(=O)[C@@H](NC(=O)[C@H](C)NC(=O)[C@H](CC(C)C)NC(=O)[C@H](CCC(=O)O)NC(=O)[C@H](CO)NC(=O)[C@@H](NC(=O)[C@H](Cc1ccccc1)NC(=O)[C@H](CO)NC(=O)CNC(=O)[C@H](CCC(=O)O)NC(=O)C(C)(C)NC(=O)[C@@H](N)Cc1c[nH]cn1)[C@@H](C)O)[C@@H](C)O)[C@@H](C)CC)C(=O)N[C@@H](C)C(=O)N[C@@H](Cc1c[nH]c2ccccc12)C(=O)N[C@@H](CC(C)C)C(=O)N[C@H](C(=O)N[C@@H](CCC(N)=O)C(=O)N[C@@H](Cc1c[nH]cn1)C(=O)N[C@@H](CCCCN)C(=O)N[C@H](C(=O)N[C@H](C(=O)N[C@@H](CC(=O)O)C(=O)O)[C@@H](C)O)[C@@H](C)CC)[C@@H](C)CC
[1]
  EC50 GLP-1 (nM); cAMP response: 0.19 nM
[2]
  EC50 GLP-2 (nM); cAMP response: 0.21 nM

B4: Compound 19 (peptide)
peptide: HXEGTFTSELATILDXQAARDFIAWLIQHKITD
HELM: PEPTIDE1{H.[Aib].E.G.T.F.T.S.E.L.A.T.I.L.D.K.Q.A.A.R.D.F.I.A.W.L.I.Q.H.K.I.T.D}|PEPTIDE2{[O=C(O)CCCCCCCCCCCCCCCCC(=O)[*:2]].[gGlu]}$PEPTIDE1,PEPTIDE2,16:R3-2:R2$$$V2.0
SMILES: CC[C@H](C)[C@H](NC(=O)[C@H](Cc1ccccc1)NC(=O)[C@H](CC(=O)O)NC(=O)[C@H](CCCNC(=N)N)NC(=O)[C@H](C)NC(=O)[C@H](C)NC(=O)[C@H](CCC(N)=O)NC(=O)[C@H](CCCCNC(=O)CC[C@H](NC(=O)CCCCCCCCCCCCCCCCC(=O)O)C(=O)O)NC(=O)[C@H](CC(=O)O)NC(=O)[C@H](CC(C)C)NC(=O)[C@@H](NC(=O)[C@@H](NC(=O)[C@H](C)NC(=O)[C@H](CC(C)C)NC(=O)[C@H](CCC(=O)O)NC(=O)[C@H](CO)NC(=O)[C@@H](NC(=O)[C@H](Cc1ccccc1)NC(=O)[C@@H](NC(=O)CNC(=O)[C@H](CCC(=O)O)NC(=O)C(C)(C)NC(=O)[C@@H](N)Cc1c[nH]cn1)[C@@H](C)O)[C@@H](C)O)[C@@H](C)O)[C@@H](C)CC)C(=O)N[C@@H](C)C(=O)N[C@@H](Cc1c[nH]c2ccccc12)C(=O)N[C@@H](CC(C)C)C(=O)N[C@H](C(=O)N[C@@H](CCC(N)=O)C(=O)N[C@@H](Cc1c[nH]cn1)C(=O)N[C@@H](CCCCN)C(=O)N[C@H](C(=O)N[C@H](C(=O)N[C@@H](CC(=O)O)C(=O)O)[C@@H](C)O)[C@@H](C)CC)[C@@H](C)CC
[1]
  EC50 GLP-1 (nM); cAMP response: 0.066 nM
[2]
  EC50 GLP-2 (nM); cAMP response: 0.23 nM
